B1: HEEH_KT_rd6_3546 (parent)
chain: SEEDKEREHWERLNRDFELRVLDTTFIAHHAEEVIKLLRWLEK

Variants of: B1
Assay: folding stability dG (cDNA display proteolysis); higher = more stable
Conditions: PBS, room temperature

Folding stability dG [kcal/mol] of substitutions, site by site:
T24: K 1.07; G 0.995; P 1.22; V 2.13; H 1.13; E 0.926; L 2.19; S 1.06; A 1.41; N 1.28; F 2.01; Q 1.02; M 1.82; Y 1.79; I 2.24; W 2.13; R 1.25; D 0.925
D23: K 1.6; M 2.76; Y 2.92; L 2.86; T 2.27; I 3.03; F 3.18; A 2.35; E 1.29; P 1.35; W 2.85; H 2.01; S 1.94; R 1.87; V 3; G 1.64; Q 1.64; N 1.45
A28: D 0.777; V 1.51; Q 0.99; W 2.14; G 1.01; Y 1.64; R 1.48; F 1.94; L 1.99; E 0.888; S 1.15; N 0.915; I 1.82; T 1.2; H 0.802; M 1.84; P 0.699; K 1.29; C 2.23
V21: K 1.03; L 1.85; P 0.85; H 1.22; M 1.41; Q 1.3; W 1.95; I 1.84; N 1.23; D 1.09; R 1.41; T 1.27; S 1.16; Y 1.5; G 1.49; F 1.72; A 1.33; E 1.06
T25: M 1.36; D 1.2; Q 0.911; S 1.52; A 1.46; V 1.61; N 1.26; R 1.41; F 2.35; E 1.31; G 0.905; H 1.29; L 2.18; C 1.75; P 0.992; W 2.16; K 1.16; I 1.7; Y 1.65
L19: R 1.21; K 0.521; N 0.808; A 0.896; Y 1.14; I 1.39; C 2.03; E 0.795; G 0.617; M 0.996; D 0.732; F 1.42; W 1.49; S 0.796; T 0.795; P 0.862; H 0.971; Q 0.821; V 1.05
F26: V 0.759; K 0.504; G 0.568; S 0.703; E 0.588; N 0.663; W 1.7; R 0.974; I 0.875; Q 0.576; M 0.674; P 0.393; L 0.925; Y 1.04; A 0.696; H 0.83; T 0.642; D 0.665
H30: A 2.04; Y 2.05; P 0.902; V 2.38; E 0.893; R 1.07; I 2.09; K 1.13; G 1.44; T 1.72; F 2.3; L 2.38; Q 1.06; W 2.69; S 1.23; N 1.09; M 2.34; D 0.85; C 1.6
V34: W 1.47; L 1.57; F 1.61; M 1.2; D 0.006; T 0.62; N -0.04; K 0.1; S 0.133; Y 1.06; H 0.255; I 1.75; Q -0.202; G 0.3; A 1.06; C 1.54; E 0.228; R 0.162
H29: A 1.49; R 1.68; V 1.61; W 2.01; N 1.3; T 1.35; Q 1.23; C 1.85; S 1.59; G 1.17; Y 1.94; E 1.45; I 2.5; M 1.98; L 1.59; D 1.05; P 0.857; F 2.21; K 1.77
I27: K 0.613; C 2.33; L 1.37; G 0.669; S 0.654; W 1.88; A 0.784; Y 1.25; V 0.996; Q 0.497; E 0.508; T 0.562; N 0.776; R 0.466; M 1.12; F 1.58; H 0.648; D 0.608; P 0.57
A31: I 2.19; S 0.872; Q 0.833; M 1.79; F 1.96; K 1.09; E 0.663; L 1.94; Y 1.61; T 1.33; D 0.6; V 2.1; P 0.618; H 0.66; C 2.24; N 0.698; R 1.07; G 0.934; W 2.28
L22: E 0.622; D 0.869; Q 0.891; Y 1.67; G 1.48; K 0.899; A 1.06; M 1.3; S 0.925; N 1.06; P 0.989; W 1.35; V 1.18; R 1.07; T 0.948; F 1.42; I 1.53; H 0.824
R20: I 1.99; C 2.37; A 1.04; M 1.63; E 0.819; T 1.4; D 1.18; H 1.39; G 1.29; P 0.684; S 1.35; N 1.23; L 1.93; Y 2.39; Q 1.05; W 2.38; F 2.21; V 1.68; K 1.36
K36: M 1.93; A 1.56; E 0.928; G 1.14; D 1; C 2.09; N 1.28; I 2.02; L 1.92; F 2.13; H 1.24
E32: Q 1.29; F 2.21; A 1.93; R 1.37; G 1.2; I 1.73; D 1.23; M 1.72; C 1.31; V 1.79; W 2.1; K 1.54; H 1.42; S 1.42; N 1.26; L 1.92; P 1.25; T 1.43; Y 1.9
I35: L 1.47; R 1.12; V 1.17; H 0.843; C 1.88; N 0.739; F 1.49; D 0.67; Q 0.925; K 0.927; M 1.33; W 1.59; Y 1.33; S 0.508; P -0.407; T 0.787; E 0.843; G 0.628; A 1.03
E33: C 2.69; K 1.62; A 1.74; R 1.46; N 1.45; Y 2.16; H 1.41; M 2.06; Q 1.46; S 1.44; D 1.34; V 2.06; G 1.47; T 1.47; P 0.926; L 2.05; F 2.31; W 2.45; I 2.31
E18: Y 2.4; T 2.19; R 1.87; W 2.88; V 2.17; S 1.83
